{"source": "paper PMC11992174", "about": "“Structural Insights into Bortezomib-Induced Activation of the Caseinolytic Chaperone-Protease System in Mycobacterium tuberculosis” (Nature Communications, 2025)", "proteins": {"B1": {"name": "MtbClpX^E187Q (enzyme)", "chain": "not shown", "notes": "also called Walker B motif mutant MtbClpX"}}, "target": "the molecule itself", "assay": "cryo-EM structure", "data": [{"protein": "B1", "values": [{"measurement": "stoichiometry N", "result": 6}]}]}
